In PMC5425604, “Fe65-PTB2 Dimerization Mimics Fe65-APP Interaction” (Frontiers in Molecular Neuroscience, 2017):
Values joined by “and” are separate entries in the source; they are usually repeats but may differ in a detail not shown here. Equal entries are not always repeated.

Key:
[1] = target: the molecule itself; experiment: SEC-MALS; MALS in line with SEC, refractive index; SEC buffer with 5% (v/v) glycerol
[2] = target: the molecule itself; experiment: SAXS; 0.25-6 mg/mL, 20 mM Na2HPO4 pH 6.5, 150 mM NaCl, 2 mM DTT (reducing), 300 K; monomer to dimer
[3] = target: the molecule itself; experiment: native gel or EMSA; Blue Native gel of cytosolic and membrane fractions of HEK293 cells expressing Fe65-HA, with or without APP-myc; blots for HA and myc

B1: Human Fe65-PTB2 (residues 534-667), crystallization construct (domain or fragment, UniProt O00213 534-667, looked up)
chain: APKNELVQKFQVYYLGNVPVAKPVGVDVINGALESVLSSSSREQWTPSHVSVAPATLTILHQQTEAVLGECRVRFLSFLAVGRDVHTFAFIMAAGPASFCCHMFWCEPNAASLSEAVQAACMLRYQKCLDARSQ
notes: Fe65 (APBB1), human, PTB2 domain, residues 534-667 of UniProtKB APBB1_HUMAN O00213; source: recombinantly expressed and purified as described previously (Radzimanowski et al., 2008a); final SEC with 5% glycerol
stoichiometry N [1]: 2 and 4

B2: Wildtype Fe65-PTB2 (pETHis construct for NMR and SAXS) (domain or fragment, human, UniProt O00213 534-667, looked up)
chain: B1 chain
notes: Fe65 (APBB1), human, PTB2 domain; limits 534-667 are stated for recombinant Fe65-PTB2 in general, not separately for the pETHis construct; also called wt Fe65-PTB2
stoichiometry N [2]: 2

B3: Fe65-HA (natural protein, human, UniProt O00213 1-710, looked up)
chain: MSVPSSLSQSAINANSHGGPALSLPLPLHAAHNQLLNAKLQATAVGPKDLRSAMGEGGGPEPGPANAKWLKEGQNQLRRAATAHRDQNRNVTLTLAEEASQEPEMAPLGPKGLIHLYSELELSAHNAANRGLRGPGLIISTQEQGPDEGEEKAAGEAEEEEEDDDDEEEEEDLSSPPGLPEPLESVEAPPRPQALTDGPREHSKSASLLFGMRNSAASDEDSSWATLSQGSPSYGSPEDTDSFWNPNAFETDSDLPAGWMRVQDTSGTYYWHIPTGTTQWEPPGRASPSQGSSPQEESQLTWTGFAHGEGFEDGEFWKDEPSDEAPMELGLKEPEEGTLTFPAQSLSPEPLPQEEEKLPPRNTNPGIKCFAVRSLGWVEMTEEELAPGRSSVAVNNCIRQLSYHKNNLHDPMSGGWGEGKDLLLQLEDETLKLVEPQSQALLHAQPIISIRVWGVGRDSGRERDFAYVARDKLTQMLKCHVFRCEAPAKNIATSLHEICSKIMAERRNARCLVNGLSLDHSKLVDVPFQVEFPAPKNELVQKFQVYYLGNVPVAKPVGVDVINGALESVLSSSSREQWTPSHVSVAPATLTILHQQTEAVLGECRVRFLSFLAVGRDVHTFAFIMAAGPASFCCHMFWCEPNAASLSEAVQAACMLRYQKCLDARSQASTSCLPAPPAESVARRVGWTVRRGVQSLWGSLKPKRLGAHTP
notes: Fe65 (APBB1); called full-length Fe65 in the native gel analysis; human stated for Fe65 in general; Printed both as FE65-HA and HA-Fe65; also called HA-Fe65; HA-tagged Fe65; source: HEK293, transfected (pcDNA3.1), in lysate or subcellular fraction
stoichiometry N [3]: 2
